Data reported in article PMC4738280, “Transthyretin participates in beta-amyloid transport from the brain to the liver- involvement of the low-density lipoprotein receptor-related protein 1?” (Scientific Reports, 2016).

Legend:
Format in all cases: cell-based, human
[1] = system: hCMEC/D3 cells; assay: FAM-Aβ1-42 uptake by hCMEC/D3 cells, flow cytometry; conditions: hCMEC/D3, FAM-Aβ1-42 500 ng/mL (100 nM), 37 °C
Method: For quantification of Aβ1-42 uptake, hCMEC/D3 cells were plated into a 6-well plate coated with collagen type I and grown to confluence. Cells were washed with PBS and incubated for 5, 10, 15 and 30 minutes at 37 °C, with 500 ng/mL of FAM-Aβ1-42 (100 nM) in presence or absence of h rTTR (7.5 μg/mL, 136 nM). After incubation, cells were washed twice with PBS and enzymatically detached using trypsin (Gibco™), and then resuspended cells were centrifuged at 1000 rpm at RT for 5 minutes. The pellet was washed with PBS and cells recentrifuged as described above. Then the pellet was resuspended with PBS, and if necessary fixed with 4% Paraformaldehyde (PFA). Finally, cells were analyzed in FACS Canto II equipment (BD Biosciences) using Blue laser excitation of 488 nm. The flow cytometry data were analyzed using the Flowjo workstation.

[2] = system: hCMEC/D3 cells; assay: FAM-Aβ1-42 efflux from hCMEC/D3 cells, flow cytometry; conditions: hCMEC/D3, 10 min loading with FAM-Aβ1-42, then 20 min in FAM-Aβ1-42-free media, 37 °C, mean of N = 3
Method: For efflux studies, hCMEC/D3 cells were initially incubated with FAM-Aβ1-42 for 10 minutes and then the media was removed and replaced with FAM-Aβ1-42 -free media, and further incubated for 10 and 20 minutes, at 37 °C. Finally, cells were analyzed by flow cytometry, as described above.

[3] = system: SAHep cells; assay: FAM-Aβ1-42 internalization by SAHep cells, flow cytometry; conditions: FAM-Aβ1-42, 4.5–7.5 μg/mL of h rTTR, 3 hours, 37 °C, N = 3
Method: For the study with hepatocytes, SAHep cells were grown in 6-well plates coated with collagen type I and after 24 hours cells were incubated with FAM-Aβ1-42 in the presence or absence of h rTTR (136 nM) for 3 hours at 37 °C. For primary hepatocytes, after 48 hours of seeding, cells were incubated with FAM-Aβ1-42 (100 nM), with the advantage of no need for TTR addition. For hepatocytes derived from TTR−/− mice, we also examined the effect of h rTTR on FAM-Aβ1-42 internalization. FAM-Aβ1-42 inside SAHep cells and primary hepatocytes was measured by flow cytometry (FACS Canto II, BD Biosciences).

Substance: FAM-Aβ1-42: Aβ1-42 labeled with 5-(and-6)-Carboxyfluorescenin (FAM), purchased from AnaSpec
- FAM-Aβ1-42 uptake, fluorescent cells ([1]; 5 min, absence and presence of h rTTR 7.5 μg/mL (136 nM), N = 3): 35–39%
- FAM-Aβ1-42 uptake, fluorescent cells ([1]; 10 min, absence and presence of h rTTR 7.5 μg/mL, difference not significant, N = 3): over 57%
- FAM-Aβ1-42 uptake, fluorescent cells ([1]; 15 min, absence of TTR, mean of N = 3): 61.7%
- FAM-Aβ1-42 uptake, fluorescent cells ([1]; 15 min, presence of h rTTR 7.5 μg/mL (136 nM), mean of N = 3): about 73%
- FAM-Aβ1-42 internalization with versus without TTR ([1]; 30 min, h rTTR 7.5 μg/mL versus none, N = 3): significantly higher in the presence of TTR
- FAM-Aβ1-42 efflux, fluorescent cells remaining ([2]; absence of TTR): 67.6%
- FAM-Aβ1-42 efflux, fluorescent cells remaining ([2]; presence of h rTTR): 45.5%
- Uptake of Aβ1-42 peptide by SAHep cells, maximum [3]: 70%
